# How the values were obtained:
# [1] = target: TraB C-terminal domain (TraBCT) (E. coli (plasmid pKM101)); assay: SEC
# [2] = target: TraB C-terminal domain (TraBCT) (E. coli (plasmid pKM101)); assay: SAXS; beamline ID02 (ESRF), buffer GFsol, 20°C; TraBCT 2.1-8.2 mg/ml, LvhB4 2-8.9 mg/ml; molecular mass from forward scattering I(0), absolute calibration with water; self-association
# [3] = target: TraB N-terminal domain (TraBNT), membrane-extracted form (E. coli (plasmid pKM101)) (UniProt P41067); assay: SAXS; beamline X33 (EMBL-Hamburg), buffer GFmb; TraBFL 3-13.5 mg/ml, TraBNT 1.3-8.2 mg/ml; molecular mass from forward scattering I(0), calibrated with BSA; self-association
# [4] = target: TraB N-terminal domain (TraBNT), membrane-extracted form (E. coli (plasmid pKM101)) (UniProt P41067); assay: SEC
# [5] = target: TraB full-length (TraBFL), the VirB4 homolog encoded by the E. coli pKM101 plasmid, membrane-extracted form (E. coli (plasmid pKM101)) (UniProt P41067); assay: SAXS; beamline X33 (EMBL-Hamburg), buffer GFmb; TraBFL 3-13.5 mg/ml, TraBNT 1.3-8.2 mg/ml; molecular mass from forward scattering I(0), calibrated with BSA; self-association
# [6] = target: TraB full-length (TraBFL), the VirB4 homolog encoded by the E. coli pKM101 plasmid, membrane-extracted form (E. coli (plasmid pKM101)) (UniProt P41067); assay: SEC
substance,measurement,setting,value
TraB C-terminal domain (TraBCT) (domain or fragment),stoichiometry N,[1],2
same,stoichiometry N,[2],2
"TraB N-terminal domain (TraBNT), membrane-extracted form (from UniProt P41067 1-442) (domain or fragment)",stoichiometry N,[3],2
same,stoichiometry N,[4],2
"TraB full-length (TraBFL), the VirB4 homolog encoded by the E. coli pKM101 plasmid, membrane-extracted form (from UniProt P41067 1-475) (natural protein)",stoichiometry N,[5],2
same,stoichiometry N,[6],2

# — PMC3032639
